Assay results: article PMC6158211

B1: 3xFlag-UBL3 (wild-type ubiquitin-like 3/membrane-anchored Ub-fold protein) [not stated] / ATXN10 [human (endogenous in MDA-MB-231)] (parent)
chain 1: MSSNVPADMINLRLILVSGKTKEFLFSPNDSASDIAKHVYDNWPMDWEEEQVSSPNILRLIYQGRFLHGNVTLGALKLPFGKTTVMHLVARETLPEPNSQGQRNREKTGESNCCVIL
chain 2: MAAPRPPPARLSGVMVPAPIQDLEALRALTALFKEQRNRETAPRTIFQRVLDILKKSSHAVELACRDPSQVENLASSLQLITECFRCLRNACIECSVNQNSIRNLDTIGVAVDLILLFRELRVEQESLLTAFRCGLQFLGNIASRNEDSQSIVWVHAFPELFLSCLNHPDKKIVAYSSMILFTSLNHERMKELEENLNIAIDVIDAYQKHPESEWPFLIITDLFLKSPELVQAMFPKLNNQERVTLLDLMIAKITSDEPLTKDDIPVFLRHAELIASTFVDQCKTVLKLASEEPPDDEEALATIRLLDVLCEMTVNTELLGYLQVFPGLLERVIDLLRVIHVAGKETTNIFSNCGCVRAEGDISNVANGFKSHLIRLIGNLCYKNKDNQDKVNELDGIPLILDNCNISDSNPFLTQWVIYAIRNLTEDNSQNQDLIAKMEEQGLADASLLKKVGFEVEKKGEKLILKSTRDTPKP
B2: 3xFlag-UBL3 (wild-type ubiquitin-like 3/membrane-anchored Ub-fold protein) [not stated] / TUBB4A [human (endogenous in MDA-MB-231)] (parent)
chain 1: B1 chain 1
chain 2: MREIVHLQAGQCGNQIGAKFWEVISDEHGIDPTGTYHGDSDLQLERINVYYNEATGGNYVPRAVLVDLEPGTMDSVRSGPFGQIFRPDNFVFGQSGAGNNWAKGHYTEGAELVDAVLDVVRKEAESCDCLQGFQLTHSLGGGTGSGMGTLLISKIREEFPDRIMNTFSVVPSPKVSDTVVEPYNATLSVHQLVENTDETYCIDNEALYDICFRTLKLTTPTYGDLNHLVSATMSGVTTCLRFPGQLNADLRKLAVNMVPFPRLHFFMPGFAPLTSRGSQQYRALTVPELTQQMFDAKNMMAACDPRHGRYLTVAAVFRGRMSMKEVDEQMLSVQSKNSSYFVEWIPNNVKTAVCDIPPRGLKMAATFIGNSTAIQELFKRISEQFTAMFRRKAFLHWYTGEGMDEMEFTEAESNMNDLVSEYQQYQDATAEEGEFEEEAEEEVA

Variants of: B1
Test: Flag antibody-bead pull-down, on-bead digestion, LC-MS/MS label-free quantification
Settings: with ATXN10 [human (endogenous in MDA-MB-231)]; lysates of MDA-MB-231 cells; triplicate pull-downs; read off a plot

Variant | screen value
chain 1 MSSNVPADMINLRLILVSGKTKEFLFSPNDSASDIAKHVYDNWPMDWEEEQVSSPNILRLIYQGRFLHGNVTLGALKLPFGKTTVMHLVARETLPEPNSQGQRNREKTGESNAAVIL | 5.1 log2

Variants of: B2
Test: as above
Settings: with TUBB4A [human (endogenous in MDA-MB-231)]; lysates of MDA-MB-231 cells; triplicate pull-downs; read off a plot

Variant | screen value
chain 1 MSSNVPADMINLRLILVSGKTKEFLFSPNDSASDIAKHVYDNWPMDWEEEQVSSPNILRLIYQGRFLHGNVTLGALKLPFGKTTVMHLVARETLPEPNSQGQRNREKTGESNAAVIL | 3.2 log2
